The source of these data is patent US20250171562A1.

The chains are these.
B1: NIgG4F4A1(G4S)1 (Fc fusion)
chain 1: DVQLQESGGGLVQAGGSLRLSCAVSGLSFSSMGWFRQPPGKEREFVAAISLYSGSTYYADSVKGRFTISSDNAKSTVYLQMNSLKPEDAAVYFCAADRQRTWSTFYASRQATYNYWGQGTQVTVTSGGGGSGPPCPPCPAPEFLGGPSVFLFPPKPKDTLMISRTPEVTCVVVDVSQEDPEVQFNWYVDGVEVHNAKTKPREEQFNSTYRVVSVLTVLHQDWLNGKEYKCKVSNKGLPSSIEKTISKAKGQPREPQVYTLPPCQEEMTKNQVSLWCLVKGFYPSDIAVEWESNGQPENNYKTTPPVLDSDGSFFLYSRLTVDKSRWQEGNVFSCSVMHEALHNHYTQKSLSLSLGK
chain 2: EVQLLESGGGLVQPGGSLRLSCAASGFTFGNYDMAWVRQAPGKRPEWVSSIDTGGDITHYADSVKGRFTISRDNAKNTLYLQMNSLRPEDTAVYWCATDEEYALGPNEFDYYGQGTLVTVSSGGGGSGPPCPPCPAPEFLGGPSVFLFPPKPKDTLMISRTPEVTCVVVDVSQEDPEVQFNWYVDGVEVHNAKTKPREEQFNSTYRVVSVLTVLHQDWLNGKEYKCKVSNKGLPSSIEKTISKAKGQPREPQVCTLPPSQEEMTKNQVSLSCAVKGFYPSDIAVEWESNGQPENNYKTTPPVLDSDGSFFLVSRLTVDKSRWQEGNVFSCSVMHEALHNHYTQKSLSLSLGK
B2: NIgG4F3A1(G4S)3 (Fc fusion)
chain 1: DVQLQESGGGLVQAGGSLKLSCAASRGSLSRWDVAWFRQAPGKERSFVTRISWSGTTSYYADAVKGRFAISRDNAKNTVYLQMNSLKPEDTAVYYCAVALYGNRGYYDVNAHSYWGQGTQVTVSGGGGSGGGGSGGGGSGPPCPPCPAPEFLGGPSVFLFPPKPKDTLMISRTPEVTCVVVDVSQEDPEVQFNWYVDGVEVHNAKTKPREEQFNSTYRVVSVLTVLHQDWLNGKEYKCKVSNKGLPSSIEKTISKAKGQPREPQVYTLPPCQEEMTKNQVSLWCLVKGFYPSDIAVEWESNGQPENNYKTTPPVLDSDGSFFLYSRLTVDKSRWQEGNVFSCSVMHEALHNHYTQKSLSLSLGK
chain 2: EVQLLESGGGLVQPGGSLRLSCAASGFTFGNYDMAWVRQAPGKRPEWVSSIDTGGDITHYADSVKGRFTISRDNAKNTLYLQMNSLRPEDTAVYWCATDEEYALGPNEFDYYGQGTLVTVSSGGGGSGGGGSGGGGSGPPCPPCPAPEFLGGPSVFLFPPKPKDTLMISRTPEVTCVVVDVSQEDPEVQFNWYVDGVEVHNAKTKPREEQFNSTYRVVSVLTVLHQDWLNGKEYKCKVSNKGLPSSIEKTISKAKGQPREPQVCTLPPSQEEMTKNQVSLSCAVKGFYPSDIAVEWESNGQPENNYKTTPPVLDSDGSFFLVSRLTVDKSRWQEGNVFSCSVMHEALHNHYTQKSLSLSLGK
B3: CIgG4F3A1(G4S)3 (Fc fusion)
chain 1: GPPCPPCPAPEFLGGPSVFLFPPKPKDTLMISRTPEVTCVVVDVSQEDPEVQFNWYVDGVEVHNAKTKPREEQFNSTYRVVSVLTVLHQDWLNGKEYKCKVSNKGLPSSIEKTISKAKGQPREPQVYTLPPCQEEMTKNQVSLWCLVKGFYPSDIAVEWESNGQPENNYKTTPPVLDSDGSFFLYSRLTVDKSRWQEGNVFSCSVMHEALHNHYTQKSLSLSLGKGGGGSGGGGSGGGGSDVQLQESGGGLVQAGGSLKLSCAASRGSLSRWDVAWFRQAPGKERSFVTRISWSGTTSYYADAVKGRFAISRDNAKNTVYLQMNSLKPEDTAVYYCAVALYGNRGYYDVNAHSYWGQGTQVTVS
chain 2: GPPCPPCPAPEFLGGPSVFLFPPKPKDTLMISRTPEVTCVVVDVSQEDPEVQFNWYVDGVEVHNAKTKPREEQFNSTYRVVSVLTVLHQDWLNGKEYKCKVSNKGLPSSIEKTISKAKGQPREPQVCTLPPSQEEMTKNQVSLSCAVKGFYPSDIAVEWESNGQPENNYKTTPPVLDSDGSFFLVSRLTVDKSRWQEGNVFSCSVMHEALHNHYTQKSLSLSLGKGGGGSGGGGSGGGGSEVQLLESGGGLVQPGGSLRLSCAASGFTFGNYDMAWVRQAPGKRPEWVSSIDTGGDITHYADSVKGRFTISRDNAKNTLYLQMNSLRPEDTAVYWCATDEEYALGPNEFDYYGQGTLVTVSS
B4: CIgG4F3A1(G4S)1 (Fc fusion)
chain 1: GPPCPPCPAPEFLGGPSVFLFPPKPKDTLMISRTPEVTCVVVDVSQEDPEVQFNWYVDGVEVHNAKTKPREEQFNSTYRVVSVLTVLHQDWLNGKEYKCKVSNKGLPSSIEKTISKAKGQPREPQVYTLPPCQEEMTKNQVSLWCLVKGFYPSDIAVEWESNGQPENNYKTTPPVLDSDGSFFLYSRLTVDKSRWQEGNVFSCSVMHEALHNHYTQKSLSLSLGKGGGGSDVQLQESGGGLVQAGGSLKLSCAASRGSLSRWDVAWFRQAPGKERSFVTRISWSGTTSYYADAVKGRFAISRDNAKNTVYLQMNSLKPEDTAVYYCAVALYGNRGYYDVNAHSYWGQGTQVTVS
chain 2: GPPCPPCPAPEFLGGPSVFLFPPKPKDTLMISRTPEVTCVVVDVSQEDPEVQFNWYVDGVEVHNAKTKPREEQFNSTYRVVSVLTVLHQDWLNGKEYKCKVSNKGLPSSIEKTISKAKGQPREPQVCTLPPSQEEMTKNQVSLSCAVKGFYPSDIAVEWESNGQPENNYKTTPPVLDSDGSFFLVSRLTVDKSRWQEGNVFSCSVMHEALHNHYTQKSLSLSLGKGGGGSEVQLLESGGGLVQPGGSLRLSCAASGFTFGNYDMAWVRQAPGKRPEWVSSIDTGGDITHYADSVKGRFTISRDNAKNTLYLQMNSLRPEDTAVYWCATDEEYALGPNEFDYYGQGTLVTVSS
B5: NIgG4F3A1(G4S)2 (Fc fusion)
chain 1: DVQLQESGGGLVQAGGSLKLSCAASRGSLSRWDVAWFRQAPGKERSFVTRISWSGTTSYYADAVKGRFAISRDNAKNTVYLQMNSLKPEDTAVYYCAVALYGNRGYYDVNAHSYWGQGTQVTVSGGGGSGGGGSGPPCPPCPAPEFLGGPSVFLFPPKPKDTLMISRTPEVTCVVVDVSQEDPEVQFNWYVDGVEVHNAKTKPREEQFNSTYRVVSVLTVLHQDWLNGKEYKCKVSNKGLPSSIEKTISKAKGQPREPQVYTLPPCQEEMTKNQVSLWCLVKGFYPSDIAVEWESNGQPENNYKTTPPVLDSDGSFFLYSRLTVDKSRWQEGNVFSCSVMHEALHNHYTQKSLSLSLGK
chain 2: EVQLLESGGGLVQPGGSLRLSCAASGFTFGNYDMAWVRQAPGKRPEWVSSIDTGGDITHYADSVKGRFTISRDNAKNTLYLQMNSLRPEDTAVYWCATDEEYALGPNEFDYYGQGTLVTVSSGGGGSGGGGSGPPCPPCPAPEFLGGPSVFLFPPKPKDTLMISRTPEVTCVVVDVSQEDPEVQFNWYVDGVEVHNAKTKPREEQFNSTYRVVSVLTVLHQDWLNGKEYKCKVSNKGLPSSIEKTISKAKGQPREPQVCTLPPSQEEMTKNQVSLSCAVKGFYPSDIAVEWESNGQPENNYKTTPPVLDSDGSFFLVSRLTVDKSRWQEGNVFSCSVMHEALHNHYTQKSLSLSLGK
B6: CIgG4F3A1(RS) (Fc fusion)
chain 1: GPPCPPCPAPEFLGGPSVFLFPPKPKDTLMISRTPEVTCVVVDVSQEDPEVQFNWYVDGVEVHNAKTKPREEQFNSTYRVVSVLTVLHQDWLNGKEYKCKVSNKGLPSSIEKTISKAKGQPREPQVYTLPPCQEEMTKNQVSLWCLVKGFYPSDIAVEWESNGQPENNYKTTPPVLDSDGSFFLYSRLTVDKSRWQEGNVFSCSVMHEALHNHYTQKSLSLSLGKRSDVQLQESGGGLVQAGGSLKLSCAASRGSLSRWDVAWFRQAPGKERSFVTRISWSGTTSYYADAVKGRFAISRDNAKNTVYLQMNSLKPEDTAVYYCAVALYGNRGYYDVNAHSYWGQGTQVTVS
chain 2: GPPCPPCPAPEFLGGPSVFLFPPKPKDTLMISRTPEVTCVVVDVSQEDPEVQFNWYVDGVEVHNAKTKPREEQFNSTYRVVSVLTVLHQDWLNGKEYKCKVSNKGLPSSIEKTISKAKGQPREPQVCTLPPSQEEMTKNQVSLSCAVKGFYPSDIAVEWESNGQPENNYKTTPPVLDSDGSFFLVSRLTVDKSRWQEGNVFSCSVMHEALHNHYTQKSLSLSLGKRSEVQLLESGGGLVQPGGSLRLSCAASGFTFGNYDMAWVRQAPGKRPEWVSSIDTGGDITHYADSVKGRFTISRDNAKNTLYLQMNSLRPEDTAVYWCATDEEYALGPNEFDYYGQGTLVTVSS
B7: NIgG4F4A1(RS) (Fc fusion)
chain 1: DVQLQESGGGLVQAGGSLRLSCAVSGLSFSSMGWFRQPPGKEREFVAAISLYSGSTYYADSVKGRFTISSDNAKSTVYLQMNSLKPEDAAVYFCAADRQRTWSTFYASRQATYNYWGQGTQVTVTSRSGPPCPPCPAPEFLGGPSVFLFPPKPKDTLMISRTPEVTCVVVDVSQEDPEVQFNWYVDGVEVHNAKTKPREEQFNSTYRVVSVLTVLHQDWLNGKEYKCKVSNKGLPSSIEKTISKAKGQPREPQVYTLPPCQEEMTKNQVSLWCLVKGFYPSDIAVEWESNGQPENNYKTTPPVLDSDGSFFLYSRLTVDKSRWQEGNVFSCSVMHEALHNHYTQKSLSLSLGK
chain 2: EVQLLESGGGLVQPGGSLRLSCAASGFTFGNYDMAWVRQAPGKRPEWVSSIDTGGDITHYADSVKGRFTISRDNAKNTLYLQMNSLRPEDTAVYWCATDEEYALGPNEFDYYGQGTLVTVSSRSGPPCPPCPAPEFLGGPSVFLFPPKPKDTLMISRTPEVTCVVVDVSQEDPEVQFNWYVDGVEVHNAKTKPREEQFNSTYRVVSVLTVLHQDWLNGKEYKCKVSNKGLPSSIEKTISKAKGQPREPQVCTLPPSQEEMTKNQVSLSCAVKGFYPSDIAVEWESNGQPENNYKTTPPVLDSDGSFFLVSRLTVDKSRWQEGNVFSCSVMHEALHNHYTQKSLSLSLGK
B8: CIgG4F3A1(G4S)2 (Fc fusion)
chain 1: GPPCPPCPAPEFLGGPSVFLFPPKPKDTLMISRTPEVTCVVVDVSQEDPEVQFNWYVDGVEVHNAKTKPREEQFNSTYRVVSVLTVLHQDWLNGKEYKCKVSNKGLPSSIEKTISKAKGQPREPQVYTLPPCQEEMTKNQVSLWCLVKGFYPSDIAVEWESNGQPENNYKTTPPVLDSDGSFFLYSRLTVDKSRWQEGNVFSCSVMHEALHNHYTQKSLSLSLGKGGGGSGGGGSDVQLQESGGGLVQAGGSLKLSCAASRGSLSRWDVAWFRQAPGKERSFVTRISWSGTTSYYADAVKGRFAISRDNAKNTVYLQMNSLKPEDTAVYYCAVALYGNRGYYDVNAHSYWGQGTQVTVS
chain 2: GPPCPPCPAPEFLGGPSVFLFPPKPKDTLMISRTPEVTCVVVDVSQEDPEVQFNWYVDGVEVHNAKTKPREEQFNSTYRVVSVLTVLHQDWLNGKEYKCKVSNKGLPSSIEKTISKAKGQPREPQVCTLPPSQEEMTKNQVSLSCAVKGFYPSDIAVEWESNGQPENNYKTTPPVLDSDGSFFLVSRLTVDKSRWQEGNVFSCSVMHEALHNHYTQKSLSLSLGKGGGGSGGGGSEVQLLESGGGLVQPGGSLRLSCAASGFTFGNYDMAWVRQAPGKRPEWVSSIDTGGDITHYADSVKGRFTISRDNAKNTLYLQMNSLRPEDTAVYWCATDEEYALGPNEFDYYGQGTLVTVSS

Sequence of mixture of three Der p 2 specific recombinant human IgE clones H10, H12, P4E (human) (P01854 other isoform, or with tags, fused parts or gaps): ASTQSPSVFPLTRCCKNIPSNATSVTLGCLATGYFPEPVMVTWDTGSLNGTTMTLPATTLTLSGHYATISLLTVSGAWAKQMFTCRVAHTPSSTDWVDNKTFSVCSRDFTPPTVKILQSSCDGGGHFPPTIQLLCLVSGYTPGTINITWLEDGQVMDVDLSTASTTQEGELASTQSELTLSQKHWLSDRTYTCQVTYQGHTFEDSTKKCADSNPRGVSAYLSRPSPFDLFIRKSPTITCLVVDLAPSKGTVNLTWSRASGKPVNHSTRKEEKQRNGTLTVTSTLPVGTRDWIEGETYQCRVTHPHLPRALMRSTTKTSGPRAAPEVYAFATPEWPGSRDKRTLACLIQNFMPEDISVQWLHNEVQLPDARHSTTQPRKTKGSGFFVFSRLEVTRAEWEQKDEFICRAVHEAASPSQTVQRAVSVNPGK

The experiment concerns the target mixture of three Der p 2 specific recombinant human IgE clones H10, H12, P4E (human) (UniProt P01854). Put plainly: RBL-SX38 IgE displacement, FACS.
With B1, the concentration for a half-maximal effect (EC50) turned out to be 21.6 nM and the Max effect/effect 1 µM was determined as 100%.

Regarding B2, the EC50 turned out to be 0.9 nM and the Max effect/effect 1 µM is 94%.

As for B3, the Max effect/effect 1 µM turned out to be 2%.

On to B4, for which the Max effect/effect 1 µM is 35%.

As to B5, the concentration for a half-maximal effect (EC50) was 2 nM and the Max effect/effect 1 µM stood at 95%.

As for B6, the Max effect/effect 1 µM is 9%.

As for B7, the 50% effective concentration (EC50) was found to be 331 nM and the Max effect/effect 1 µM worked out at 74%.

B8: the Max effect/effect 1 µM came out at 0%.

As a reminder, the EC50 is the concentration giving half of the maximal effect.
